# Legend:
# Type in all cases: cell-based
# RAJI cells = assay: JNG assay, co-culture with RAJI cells; settings: JNG cells expressing construct, co-culture with Raji
# In short: (§1)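 Read-out is NFAT-driven GFP measured by flow cytometry after ~4–18 h co-culture of SAR-expressing JNG cells with target cells (E:T about 1:2). SARs were introduced by lentiviral spinfection and selected with puromycin or blasticidin when possible; scores (+/- to 5+ ≈ 5–50% GFP+) are relative to parental JNG cells.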
# Nalm6 cells = assay: JNG assay, co-culture with Nalm6 cells; settings: co-culture with Nalm6
# In short: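 SAR-JNG (lentiviral spinfection, drug-selected) + target cells, E:T ≈1:2, ≈4–18 h; FACS for GFP; positivity = %GFP+ over parental JNG; grades +/- to 5+ ≈ 5–50% GFP+.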
# RS;411 = assay: JNG assay, co-culture with RS;411 cells; settings: co-culture with RS411
# In short: as §1
molecule,measurement,setting,value
22136 (protein) MALPVTALLLPLALLLHAARPEVQLVESGGGLVQAGGSLRLSCAASGRTFSMGWFRQAPGKEREFVAAITYSGGSPYYADSVKGRFTISRDNAKNTVYLQMNSLKPEDTAVYYCAANPTYGSDWNAENWGQGTQVTVSSGTGGGGSGGGGSGGGGSEFDIQMTQSPSSLSASVGDRVTITCKASDHINNWLAWYQQKPGQAPKLLIYGATTLETGVPSRFSGSGSGTDYTLTISSLQPEDFATYYCQQSWNTPWTFGQGTKLEIKRLEDLKNVFPPEVAVFEPSEAEISHTQKATLVCLATGFYPDHVELSWWVNGKEVHSGVCTDPQPLKEQPALNDSRYCLSSRLRVSATFWQNPRNHFRCQVQFYGLSENDEWTQDRAKPVTQIVSAEAWGRADCGFTSESYQQGVLSATILYEILLGKATLYAVLVSALVLMAMVKRKDSRGRAKRSGSGATNFSLLKQAGDVEENPGPTSATMDWIWRILFLVGAATGAHSGPQVQLQESGGGLAQAGGSLRLSCAASGRTFSMGWFRQAPGKEREFVAAITYSGGSPYYASSVRGRFTISRDNAKNTVYLQMNSLKPEDTAVYYCAANPTYGSDWNAENWGQGTQVTVSSGSGGGGSGGGGSGGGGSFEQVQLQQPGAELVKPGASVKMSCKASGYAFSSYWINWMKQKPGQGLEWIGQIYPGDGDTNYNGKFKGRATLTADTSSSTAYMQLSSLTSEDSAVYFCARSITTVVGCAMDYWGQGTSVTVSSTRIQNPDPAVYQLRDSKSSDKSVCLFTDFDSQTNVSQSKDSDVYITDKCVLDMRSMDFKSNSAVAWSNKSDFACANAFNNSIIPEDTFFPSPESSCDVKLVEKSFETDTNLNFQNLSVIGFRILLLKVAGFNLLMTLRLWSSRAKRSGSGVKQTLNFDLLKLAGDVESNPGPSRGHMTEYKPTVRLATRDDVPRAVRTLAAAFADYPATRHTVDPDRHIERVTELQELFLTRVGLDIGKVWVADDGAAVAVWTTPESVEAGAVFAEIGPRMAELSGSRLAAQQQMEGLLAPHRPKEPAWFLATVGVSPDHQGKGLGSAVVLPGVEAAERAGVPAFLETSAPRNLPFYERLGFTVTADVEVPEGPRTWCMTRKPGA,NFAT-GFP ASSAY: Raji,RAJI cells,"3+ (refer to approximately 5%, 10%, 20%, 30%, 40% and 50% GFP positive cells)"
same,NFAT-GFP ASSAY: Nalm6,Nalm6 cells,"+ (refer to approximately 5%, 10%, 20%, 30%, 40% and 50% GFP positive cells)"
same,NFAT-GFP ASSAY: RS411,RS;411,"+ (refer to approximately 5%, 10%, 20%, 30%, 40% and 50% GFP positive cells)"
